# In the supplement of paper PMC9112550, “Optimization of the antimicrobial peptide Bac7 by deep mutational scanning” (BMC Biology, 2022):
# System: Escherichia coli TOP10
# Assay: shrunken log2 fold change of peptide-encoding DNA abundance (4.5 h post-induction vs induction); higher = less antimicrobial activity (less host growth inhibition)
# Details: time post-induction: 4.5 h; library: site-saturation at positions 5, 18, 19, 20
# 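Also: peptides expressed intracellularly from a pBAD plasmid library in pooled LB shake-flask culture, induced with 0.3% L-arabinose, DNA abundance read by NGS, three biological replicates, DESeq2 with apeglm shrinkage.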
row,Sequence,shrunken log2 fold change
1,RRIRLRPPRLPRPRPRPNGYPRP,-0.315
2,RRIRQRPPRLPRPRPRPPYWPRP,0.0656
3,RRIRYRPPRLPRPRPRPYAKPRP,-1.76
4,RRIRERPPRLPRPRPRPIPYPRP,-0.00829
5,RRIRMRPPRLPRPRPRPCNVPRP,0.0415
6,RRIRKRPPRLPRPRPRPMDDPRP,0.123
7,RRIRPRPPRLPRPRPRPKWNPRP,-0.0477
8,RRIRERPPRLPRPRPRPMQWPRP,0.00938
9,RRIRERPPRLPRPRPRPCWTPRP,0.0421
10,RRIRARPPRLPRPRPRPFQWPRP,-0.0629
11,RRIRMRPPRLPRPRPRPTFGPRP,0.374
12,RRIRYRPPRLPRPRPRPQIMPRP,-0.705
13,RRIRLRPPRLPRPRPRPIKNPRP,-0.317
14,RRIRDRPPRLPRPRPRPHRIPRP,-0.00804
15,RRIRCRPPRLPRPRPRPVAMPRP,-0.125
16,RRIRVRPPRLPRPRPRPAKMPRP,0.0161
17,RRIRDRPPRLPRPRPRPFKLPRP,0.0184
18,RRIRHRPPRLPRPRPRPRGPPRP,0.171
19,RRIRNRPPRLPRPRPRPLAYPRP,-0.175
20,RRIRLRPPRLPRPRPRPECTPRP,0.114
21,RRIRMRPPRLPRPRPRPMRLPRP,0.416
22,RRIRKRPPRLPRPRPRPFNCPRP,0.0153
23,RRIRPRPPRLPRPRPRPTAAPRP,0.227
24,RRIRFRPPRLPRPRPRPFFIPRP,-0.429
25,RRIRTRPPRLPRPRPRPRLWPRP,0.154

row,Sequence,shrunken log2 fold change
1,RRIRKRPPRLPRPRPRPSAMPRP,0.664
2,RRIRARPPRLPRPRPRPIADPRP,0.394
3,RRIRCRPPRLPRPRPRPDFYPRP,-0.629
4,RRIRLRPPRLPRPRPRPFVYPRP,-0.476
5,RRIRERPPRLPRPRPRPYETPRP,0.0614
6,RRIRFRPPRLPRPRPRPDPHPRP,0.137
7,RRIRERPPRLPRPRPRPWWDPRP,-0.0282
8,RRIRTRPPRLPRPRPRPWIRPRP,-0.0303
9,RRIRMRPPRLPRPRPRPWTMPRP,0.0064
10,RRIRERPPRLPRPRPRPDQPPRP,0.0454
11,RRIRMRPPRLPRPRPRPNDQPRP,0.0566
12,RRIRHRPPRLPRPRPRPNERPRP,0.0404
13,RRIRCRPPRLPRPRPRPTHPPRP,0.164
14,RRIRRRPPRLPRPRPRPGWIPRP,0.442
15,RRIRFRPPRLPRPRPRPWTWPRP,0.0306
16,RRIRFRPPRLPRPRPRPTPDPRP,0.485
17,RRIRRRPPRLPRPRPRPLHTPRP,0.321
18,RRIRGRPPRLPRPRPRPMCWPRP,0.859
19,RRIRWRPPRLPRPRPRPQYSPRP,-0.653
20,RRIRLRPPRLPRPRPRPWNLPRP,-0.0149
21,RRIRGRPPRLPRPRPRPEILPRP,1.22
22,RRIRCRPPRLPRPRPRPRTYPRP,-0.447
23,RRIRGRPPRLPRPRPRPPTVPRP,1.12
24,RRIRNRPPRLPRPRPRPPYYPRP,-0.575
25,RRIRCRPPRLPRPRPRPCDNPRP,-0.0831

row,Sequence,shrunken log2 fold change
1,RRIRNRPPRLPRPRPRPGYIPRP,-1.11
2,RRIRLRPPRLPRPRPRPIMNPRP,-0.381
3,RRIRNRPPRLPRPRPRPLHWPRP,-0.273
4,RRIRERPPRLPRPRPRPTFHPRP,-0.0533
5,RRIRNRPPRLPRPRPRPKTYPRP,-1.23
6,RRIRRRPPRLPRPRPRPFCYPRP,-0.00369
7,RRIRIRPPRLPRPRPRPSTWPRP,-0.481
8,RRIRRRPPRLPRPRPRPEKQPRP,0.147
9,RRIRERPPRLPRPRPRPINEPRP,-0.281
10,RRIRNRPPRLPRPRPRPRFDPRP,0.0608
11,RRIRKRPPRLPRPRPRPMLWPRP,0.323
12,RRIRQRPPRLPRPRPRPWYFPRP,-0.289
13,RRIRSRPPRLPRPRPRPYYHPRP,-0.44
14,RRIRCRPPRLPRPRPRPNWAPRP,-0.336
15,RRIRERPPRLPRPRPRPMNLPRP,-0.0666
16,RRIRLRPPRLPRPRPRPKEQPRP,0.0445
17,RRIRNRPPRLPRPRPRPGHSPRP,-0.152
18,RRIRERPPRLPRPRPRPYQYPRP,-0.0129
19,RRIRQRPPRLPRPRPRPGMSPRP,0.285
20,RRIRMRPPRLPRPRPRPPYYPRP,-0.243
21,RRIRLRPPRLPRPRPRPEPEPRP,0.551
22,RRIRGRPPRLPRPRPRPYQGPRP,0.0167
23,RRIRRRPPRLPRPRPRPIGMPRP,-0.0232
24,RRIRKRPPRLPRPRPRPVWIPRP,0.0328
25,RRIRKRPPRLPRPRPRPPLHPRP,0.694

row,Sequence,shrunken log2 fold change
1,RRIRDRPPRLPRPRPRPKLMPRP,-0.146
2,RRIRKRPPRLPRPRPRPVWDPRP,2.04
3,RRIRMRPPRLPRPRPRPNSEPRP,0.128
4,RRIRTRPPRLPRPRPRPDARPRP,0.0965
5,RRIRLRPPRLPRPRPRPDEVPRP,0.256
6,RRIRWRPPRLPRPRPRPTPYPRP,0.284
7,RRIRWRPPRLPRPRPRPNWTPRP,0.0351
8,RRIRIRPPRLPRPRPRPWQYPRP,-0.0758
9,RRIRTRPPRLPRPRPRPKQTPRP,0.204
10,RRIRMRPPRLPRPRPRPANPPRP,0.267
11,RRIRDRPPRLPRPRPRPGELPRP,0.684
12,RRIRRRPPRLPRPRPRPDWRPRP,0.36
13,RRIRKRPPRLPRPRPRPMLSPRP,-0.227
14,RRIRQRPPRLPRPRPRPQWPPRP,0.239
15,RRIRFRPPRLPRPRPRPNHQPRP,-0.736
16,RRIRGRPPRLPRPRPRPDKWPRP,0.243
17,RRIRIRPPRLPRPRPRPRIMPRP,-0.537
18,RRIRWRPPRLPRPRPRPQVEPRP,-0.00667
19,RRIRYRPPRLPRPRPRPIREPRP,-0.271
20,RRIRERPPRLPRPRPRPPGYPRP,-0.175
21,RRIRYRPPRLPRPRPRPIYMPRP,-0.22
22,RRIRERPPRLPRPRPRPSFTPRP,-1.03
23,RRIRMRPPRLPRPRPRPSYYPRP,-0.531
24,RRIRCRPPRLPRPRPRPFNYPRP,-0.836
25,RRIRDRPPRLPRPRPRPEFWPRP,1.02

row,Sequence,shrunken log2 fold change
1,RRIRFRPPRLPRPRPRPEENPRP,-0.00844
2,RRIRPRPPRLPRPRPRPHIQPRP,-0.312
3,RRIRYRPPRLPRPRPRPRDDPRP,-0.241
4,RRIRERPPRLPRPRPRPPRHPRP,0.0414
5,RRIRRRPPRLPRPRPRPGFCPRP,0.37
6,RRIRQRPPRLPRPRPRPNYTPRP,-0.207
7,RRIRLRPPRLPRPRPRPRSIPRP,-0.247
8,RRIRMRPPRLPRPRPRPEQHPRP,1.06
9,RRIRKRPPRLPRPRPRPCANPRP,0.232
10,RRIRWRPPRLPRPRPRPYKQPRP,-0.0587
11,RRIRSRPPRLPRPRPRPWPYPRP,-0.03
12,RRIRFRPPRLPRPRPRPYFRPRP,-0.134
13,RRIRCRPPRLPRPRPRPWWAPRP,1.27
14,RRIRGRPPRLPRPRPRPYVKPRP,-0.417
15,RRIRWRPPRLPRPRPRPAISPRP,-0.00844
16,RRIRVRPPRLPRPRPRPHKVPRP,-0.331
17,RRIRCRPPRLPRPRPRPDLSPRP,0.0851
18,RRIRIRPPRLPRPRPRPVHCPRP,-0.335
19,RRIRVRPPRLPRPRPRPTPFPRP,0.279
20,RRIRSRPPRLPRPRPRPMCIPRP,-0.0138
21,RRIRCRPPRLPRPRPRPNHSPRP,-0.936
22,RRIRKRPPRLPRPRPRPYVEPRP,-1.51
23,RRIRFRPPRLPRPRPRPSRGPRP,0.485
24,RRIRVRPPRLPRPRPRPRSMPRP,-0.123
25,RRIRQRPPRLPRPRPRPRCVPRP,1.47
